Assay results taken from PMC7318764, “Shrimp miR-965 induced the human melanoma stem-like cell apoptosis and inhibited their stemness by disrupting the MCL-1-ER stress-XBP1 feedback loop in a cross-species manner”.

Target: Ago2 (human, UniProt Q9UKV8 1-859)
Assay: EMSA; Ago2 12.5, 25, 50, 100 mM (so in the source) with 40 mM miR-965; 1 mM MgCl2; shifted band increases with Ago2; 0.1 M KCl, 1 mM DTT, 1 mM MgCl2, 10 mM HEPES pH 7.6, 30 min at 37 C; 1% agarose gel, ethidium bromide then Coomassie stain
Conditions: protein: recombinant; single strand printed

Chain of Ago2 (Q9UKV8 whole entry): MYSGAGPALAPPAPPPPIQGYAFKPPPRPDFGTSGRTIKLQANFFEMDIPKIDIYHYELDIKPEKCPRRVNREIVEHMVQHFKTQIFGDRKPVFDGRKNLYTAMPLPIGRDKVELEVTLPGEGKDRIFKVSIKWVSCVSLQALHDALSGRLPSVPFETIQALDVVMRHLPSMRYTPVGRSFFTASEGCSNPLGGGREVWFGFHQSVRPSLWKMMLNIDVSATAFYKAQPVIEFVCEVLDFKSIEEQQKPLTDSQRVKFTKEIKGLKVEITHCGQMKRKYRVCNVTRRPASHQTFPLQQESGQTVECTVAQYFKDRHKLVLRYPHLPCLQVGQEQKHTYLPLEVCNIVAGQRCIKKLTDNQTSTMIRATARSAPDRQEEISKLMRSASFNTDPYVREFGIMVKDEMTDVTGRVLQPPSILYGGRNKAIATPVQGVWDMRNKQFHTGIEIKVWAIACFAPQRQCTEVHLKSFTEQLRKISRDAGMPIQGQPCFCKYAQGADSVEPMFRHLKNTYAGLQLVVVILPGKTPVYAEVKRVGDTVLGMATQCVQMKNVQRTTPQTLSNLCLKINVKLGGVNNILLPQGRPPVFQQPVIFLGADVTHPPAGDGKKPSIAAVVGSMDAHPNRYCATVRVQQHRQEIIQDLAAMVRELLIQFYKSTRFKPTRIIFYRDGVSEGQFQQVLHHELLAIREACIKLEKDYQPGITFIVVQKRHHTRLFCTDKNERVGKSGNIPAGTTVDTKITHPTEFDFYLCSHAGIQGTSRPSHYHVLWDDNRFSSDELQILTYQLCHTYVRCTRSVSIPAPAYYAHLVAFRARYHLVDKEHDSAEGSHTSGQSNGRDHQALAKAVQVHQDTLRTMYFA

B1: shrimp miR-965 (ssRNA)
RNA: UAAGCGUAUGGCUUUUCCCCUC
binding result: binds
